{
  "source": "paper PMC9820293",
  "key": {"[1]": {"target": "Bovine cardiac actin, filamentous (F-actin) (bovine) (UniProt Q3ZC07)", "assay": "co-sedimentation; Tpm co-sedimented with F-actin at room temperature; apparent affinity; K50% is the Tpm concentration at which half of the actin becomes saturated; three measurements averaged; as described in refs 27, 28"}, "[2]": {"target": "Bovine cardiac actin, filamentous (F-actin) (bovine) (UniProt Q3ZC07)", "assay": "temperature dependence of light scattering; thermally induced dissociation of Tpm complexes with F-actin stabilized by phalloidin; light scattering at 90°, 350 nm, heating 1 °C/min; Tdiss is the temperature at which a 50% decrease in light scattering occurs; no troponin"}, "[3]": {"target": "Bovine cardiac actin, filamentous (F-actin) (bovine) (UniProt Q3ZC07)"}, "[4]": {"target": "Bovine cardiac actin, filamentous (F-actin) (bovine) (UniProt Q3ZC07)", "remark": "listed apart in the source"}, "[5]": {"target": "Bovine cardiac actin, filamentous (F-actin) (bovine) (UniProt Q3ZC07)", "remark": "listed apart in the source"}},
  "data": [
    {"substance": "Human Tpm1.1 WT (cardiac tropomyosin 1.1) (natural protein)", "values": [
      {"measurement": "K50%", "setting": "[1]", "result": 2.88, "unit": "µM"},
      {"measurement": "Tdiss", "setting": "[2]", "result": 43.3, "unit": "°C"}
    ]},
    {"substance": "Ventricular myosin from the left ventricle of the pig (from UniProt P79293 1-1935) (complex)", "values": [
      {"measurement": "V0, sliding velocity at low Ca2+ concentration, in vitro motility assay; regulated thin filament of F-actin, D219V Tpm and troponin", "setting": "[3]", "result": 0.81, "unit": "µm/s"},
      {"measurement": "V0, sliding velocity at low Ca2+ concentration, in vitro motility assay; regulated thin filament of F-actin, WT Tpm and troponin", "setting": "[3]", "result": 0.24, "unit": "µm/s"},
      {"measurement": "Vmax, sliding velocity at saturated Ca2+ concentration, in vitro motility assay; regulated thin filament of F-actin, D219V Tpm and troponin", "setting": "[3]", "result": 4.22, "unit": "µm/s"},
      {"measurement": "Vmax, sliding velocity at saturated Ca2+ concentration, in vitro motility assay; regulated thin filament of F-actin, WT Tpm and troponin", "setting": "[3]", "result": 3.73, "unit": "µm/s"},
      {"measurement": "C50 of LV myosin for the sliding velocity of thin filaments at saturated Ca2+ concentration, in vitro motility assay; thin filament with D219V Tpm", "setting": "[4]", "result": 25.9, "unit": "µg/mL"},
      {"measurement": "C50 of LV myosin for the sliding velocity of thin filaments at saturated Ca2+ concentration, in vitro motility assay; thin filament with WT Tpm", "setting": "[4]", "result": 30.1, "unit": "µg/mL"},
      {"measurement": "C50, myosin concentration at which the sliding velocity is half-maximal, in vitro motility assay; filament: F-actin alone", "setting": "[5]", "result": 20.1, "unit": "µg/mL"},
      {"measurement": "C50, myosin concentration at which the sliding velocity is half-maximal, in vitro motility assay; filament: F-actin with D219V Tpm", "setting": "[5]", "result": 26, "unit": "µg/mL"},
      {"measurement": "C50, myosin concentration at which the sliding velocity is half-maximal, in vitro motility assay; filament: F-actin with WT Tpm", "setting": "[5]", "result": 54.9, "unit": "µg/mL"},
      {"measurement": "Vmax, sliding velocity at saturated myosin concentration, in vitro motility assay; filament: F-actin alone", "setting": "[5]", "result": 2.88, "unit": "µm/s"},
      {"measurement": "Vmax, sliding velocity at saturated myosin concentration, in vitro motility assay; filament: F-actin with D219V Tpm", "setting": "[5]", "result": 2.93, "unit": "µm/s"},
      {"measurement": "Vmax, sliding velocity at saturated myosin concentration, in vitro motility assay; filament: F-actin with WT Tpm", "setting": "[5]", "result": 1.5, "unit": "µm/s"}
    ]},
    {"substance": "Human Tpm1.1 D219V mutant (natural protein)", "values": [
      {"measurement": "K50%", "setting": "[1]", "result": 2.64, "unit": "µM"},
      {"measurement": "Tdiss", "setting": "[2]", "result": 45.3, "unit": "°C"}
    ]},
    {"substance": "Atrial myosin from the left atrium of the pig (from UniProt F1RRT2 1-197; F1SSF9 1-175) (complex)", "values": [
      {"measurement": "V0, sliding velocity at low Ca2+ concentration, in vitro motility assay; regulated thin filament of F-actin, D219V Tpm and troponin", "setting": "[3]", "result": 1.42, "unit": "µm/s"},
      {"measurement": "V0, sliding velocity at low Ca2+ concentration, in vitro motility assay; regulated thin filament of F-actin, WT Tpm and troponin", "setting": "[3]", "result": 0.39, "unit": "µm/s"},
      {"measurement": "Vmax, sliding velocity at saturated Ca2+ concentration, in vitro motility assay; regulated thin filament of F-actin, D219V Tpm and troponin", "setting": "[3]", "result": 8.45, "unit": "µm/s"},
      {"measurement": "Vmax, sliding velocity at saturated Ca2+ concentration, in vitro motility assay; regulated thin filament of F-actin, WT Tpm and troponin", "setting": "[3]", "result": 7.17, "unit": "µm/s"},
      {"measurement": "C50 of LA myosin for the sliding velocity of thin filaments at saturated Ca2+ concentration, in vitro motility assay; thin filament with D219V Tpm", "setting": "[4]", "result": 47.2, "unit": "µg/mL"},
      {"measurement": "C50 of LA myosin for the sliding velocity of thin filaments at saturated Ca2+ concentration, in vitro motility assay; thin filament with WT Tpm", "setting": "[4]", "result": 45.3, "unit": "µg/mL"},
      {"measurement": "C50, myosin concentration at which the sliding velocity is half-maximal, in vitro motility assay; filament: F-actin alone", "setting": "[5]", "result": 18, "unit": "µg/mL"},
      {"measurement": "C50, myosin concentration at which the sliding velocity is half-maximal, in vitro motility assay; filament: F-actin with D219V Tpm", "setting": "[5]", "result": 43, "unit": "µg/mL"},
      {"measurement": "C50, myosin concentration at which the sliding velocity is half-maximal, in vitro motility assay; filament: F-actin with WT Tpm", "setting": "[5]", "result": 55.4, "unit": "µg/mL"},
      {"measurement": "Vmax, sliding velocity at saturated myosin concentration, in vitro motility assay; filament: F-actin alone", "setting": "[5]", "result": 3.26, "unit": "µm/s"},
      {"measurement": "Vmax, sliding velocity at saturated myosin concentration, in vitro motility assay; filament: F-actin with D219V Tpm", "setting": "[5]", "result": 3.32, "unit": "µm/s"},
      {"measurement": "Vmax, sliding velocity at saturated myosin concentration, in vitro motility assay; filament: F-actin with WT Tpm", "setting": "[5]", "result": 1.25, "unit": "µm/s"}
    ]}
  ]
}
